This note sets out measurements from paper PMC9845307, “Arabidopsis LSH10 transcription factor and OTLD1 histone deubiquitinase interact and transcriptionally regulate the same target genes”.

The labels stand for the following.
B1: probe g (ABI5) (dsDNA)
DNA 1: ACAAGAAGCGGATTCTCTCAGTTTTCCGGCGGCGGAGGAACA
DNA 2: TGTTCCTCCGCCGCCGGAAAACTGAGAGAATCCGCTTCTTGT
B2: probe d (WUS) (dsDNA)
DNA 1: TATATATATATAATCTTCTCTCTCACACAAAACCTAAAA
DNA 2: TTTTAGGTTTTGTGTGAGAGAGAAGATTATATATATATA
B3: probe c (WUS) (dsDNA)
DNA 1: TTTTAGAATTTTTGTTTTGTTTTCTGTGTGTATG
DNA 2: CATACACACAGAAAACAAAACAAAAATTCTAAAA
B4: probe e (WUS) (dsDNA)
DNA 1: ATTTACCGTTAACTTTGTGAACAAAAGTCGAATCAAACACAC
DNA 2: GTGTGTTTGATTCGACTTTTGTTCACAAAGTTAACGGTAAAT
B5: probe f (ABI5) (dsDNA)
DNA 1: GCTTTTAAACTATGTGAAGGAGGAGAACCTCCATAACAA
DNA 2: TTGTTATGGAGGTTCTCCTCCTTCACATAGTTTAAAAGC
B6: probe a (OSR2) (dsDNA)
DNA 1: TAATATAAATTGCGTTTTGTTTTCCAGATATCAA
DNA 2: TTGATATCTGGAAAACAAAACGCAATTTATATTA
B7: probe h (ARL) (dsDNA)
DNA 1: TCAGAGAAAGTGTCTAGGGGAGAAGAACCACTGTGATTG
DNA 2: CAATCACAGTGGTTCTTCTCCCCTAGACACTTTCTCTGA
B8: probe b (OSR2) (dsDNA)
DNA 1: CTGTAACGTCTTTCTCTTCACACACATAAAAAAG
DNA 2: CTTTTTTATGTGTGTGAGAGAGAAAGACGTTACAG
B9: LSH10-GFP (natural protein)
chain: MSSPRERGKSLMESSGSEPPVTPSRYESQKRRDWNTFGQYLKNQRPPVPMSHCSCNHVLDFLRYLDQFGKTKVHVPGCMFYGQPEPPAPCTCPLRQAWGSLDALIGRLRAAYEENGGPPETNPFASGAIRVYLREVRECQAKARGIPYKKKKKKKPTPEMGGGREDSSSSSSSFSFS

The target of the first series is T1, GST-LSH10 (Arabidopsis, UniProt Q9S7R3 1-177).
T1 sequence: B9 chain
In words: EMSA; poly dI.dC; reduced by 300x unlabeled probe; 100 mM Tris, 500 mM KCl, 10 mM DTT, pH 7.5 (as printed binding buffer), 1 ug dI.dC, 10 ng probe, 1 ug protein, room temperature 20 min, 6% native PAGE. The conditions noted are these: protein: recombinant; tags: N-terminal GST (pGEX-5X-1); label: biotin (labeled probe). (In general: A gel shift assay detects complexes by their altered migration in electrophoresis.)
As for B1, the binding result was “binds”.

With B2, the binding result was “binds”.

As for B3, the binding result is recorded as “binds”.

As to B4, the binding result was “binds”.

On to B5, for which the binding result was “binds”.

B6: the binding result is listed as “binds”.

Take B7: the binding result is “binds”.

The same series, now with this note: protein: recombinant; tags: N-terminal GST (pGEX-5X-1); label: biotin (labeled probe); internal mismatch/bulge as printed.
As to B8, the binding result is reported as “binds”.

The next series deals with OTLD1-RFP (Arabidopsis). The experiment in a line: FRET or BRET; acceptor photobleaching FRET (AB-FRET): GFP donor, RFP acceptor, transiently co-expressed in N. benthamiana leaves; %AB-FRET = percent increase in GFP emission after RFP photobleaching, cell nucleus, n = 13 cells.
OTLD1-RFP (Arabidopsis), sequence (F4IFS7 whole entry): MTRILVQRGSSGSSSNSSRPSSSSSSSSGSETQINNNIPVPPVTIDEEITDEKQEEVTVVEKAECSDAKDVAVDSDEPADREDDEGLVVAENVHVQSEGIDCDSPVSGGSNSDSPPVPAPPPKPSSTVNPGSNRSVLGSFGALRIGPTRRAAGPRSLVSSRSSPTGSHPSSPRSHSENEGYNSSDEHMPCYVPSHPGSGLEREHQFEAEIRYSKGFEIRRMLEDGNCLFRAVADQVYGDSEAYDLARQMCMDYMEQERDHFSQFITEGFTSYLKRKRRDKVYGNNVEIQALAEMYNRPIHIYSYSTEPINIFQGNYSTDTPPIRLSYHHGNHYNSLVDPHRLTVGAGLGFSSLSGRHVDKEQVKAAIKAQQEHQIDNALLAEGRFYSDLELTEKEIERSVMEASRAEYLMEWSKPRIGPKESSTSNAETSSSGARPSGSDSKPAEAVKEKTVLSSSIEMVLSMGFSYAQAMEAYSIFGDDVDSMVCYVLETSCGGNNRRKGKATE
Conditions: not given
A general note: Bioluminescence resonance energy transfer reports proximity on the nanometre scale.
B9 had a %AB-FRET (increase in the donor fluorescence) of 13%.
